In patent US20250122292A1 (DOMA BIOPHARMACEUTICAL SUZHOU, published 2025):

What was measured:
Experiment in all cases: SPR (Biacore 8K, Protein A chip; His-tagged antigen as analyte; 1:1 Langmuir fit)
[1] = molecular target: fasEGFR-His (ACROBiosystems Inc., Cat #: EGR-C52H5) (monkey)
Description: (§1) Dissociation was monitored for 400 seconds.

[2] = molecular target: T1, hEGFR-His (ACROBiosystems Inc., Cat #: EGR-H5222) (human, UniProt P00533 25-645)
T1 construct: Bought reagent; also called human EGFR; not shown: His tag
Description: as §1

[3] = molecular target: T2, hMET-His (ACROBiosystems Inc., Cat #: MET-H5227) (human, UniProt P08581 25-932)
T2 construct: Bought reagent; also called human MET; not shown: His tag
Description: as §1

T2 sequence (P08581 25-932 limits assumed): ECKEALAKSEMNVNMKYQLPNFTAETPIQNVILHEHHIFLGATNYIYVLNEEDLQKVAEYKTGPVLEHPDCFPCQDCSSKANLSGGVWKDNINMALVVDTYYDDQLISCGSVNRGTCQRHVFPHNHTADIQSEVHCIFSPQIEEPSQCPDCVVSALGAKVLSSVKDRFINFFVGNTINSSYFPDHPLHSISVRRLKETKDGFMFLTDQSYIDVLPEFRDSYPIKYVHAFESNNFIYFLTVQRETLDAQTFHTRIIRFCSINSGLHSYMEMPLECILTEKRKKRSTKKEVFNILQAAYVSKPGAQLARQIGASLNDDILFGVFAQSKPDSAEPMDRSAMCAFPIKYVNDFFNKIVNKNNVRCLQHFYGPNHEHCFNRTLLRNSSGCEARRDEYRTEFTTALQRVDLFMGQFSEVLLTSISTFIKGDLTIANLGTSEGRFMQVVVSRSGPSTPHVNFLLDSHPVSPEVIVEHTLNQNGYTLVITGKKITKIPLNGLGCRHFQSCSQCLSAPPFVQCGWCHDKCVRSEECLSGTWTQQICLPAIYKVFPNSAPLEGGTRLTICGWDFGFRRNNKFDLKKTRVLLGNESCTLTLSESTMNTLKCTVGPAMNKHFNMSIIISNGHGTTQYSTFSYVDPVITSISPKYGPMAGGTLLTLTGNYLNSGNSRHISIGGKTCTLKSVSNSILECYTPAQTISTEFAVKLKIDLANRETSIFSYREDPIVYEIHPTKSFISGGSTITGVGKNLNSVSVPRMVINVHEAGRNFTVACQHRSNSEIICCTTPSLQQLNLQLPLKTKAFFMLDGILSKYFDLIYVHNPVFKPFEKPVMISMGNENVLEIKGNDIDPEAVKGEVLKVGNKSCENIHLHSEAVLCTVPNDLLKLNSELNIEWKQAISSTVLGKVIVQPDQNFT

B1: E-6C4 (antibody, V domains shown)
VH: QVQLQQWGPGLVKPSQTLSLTCTVSGGSINSGDYYWSWIRQPPGKGLESIGYIYYSGSTYYNPSLKSRVTISADTSKNQFSLKLTSVTAADTAVYYCARERVYSSSLDYWGQGTLVTVSS
VL: not shown
notes: Anti-EGFR human monoclonal antibody from RenLite mice with the common light chain
Binder B1 has a Kd [1] of 158 nM.

B2: E-6C4-M-2F11 (bispecific antibody, human IgG1, kappa)
heavy 1: not shown
heavy 2: EVQLVESGPGLVKPSETLSLTCTVSGGSISSNYWSWIRQPPGKGLEWIGYIYHSGSTNYNPSLKSRVTISVDTSKNQFSLKLSSVTAADTAVYFCARGPVSIFGVVKYIDLWGRGTLVTVSSASTKGPSVFPLAPSSKSTSGGTAALGCLVKDYFPEPVTVSWNSGALTSGVHTFPAVLQSSGLYSLSSVVTVPSSSLGTQTYICNVNHKPSNTKVDKKVEPKSCDKTHTCPPCPAPELLGGPSVFLFPPKPKDTLMISRTPEVTCVVVDVSHEDPEVKFNWYVDGVEVHNAKTKPREEQYNSTYRVVSVLTVLHQDWLNGKEYKCKVSNKALPAPIEKTISKAKGQPREPQVCTLPPSREEMTKNQVSLSCAVKGFYPSDIAVEWESNGQPENNYKTTPPVLDSDGSFFLVSKLTVDKSRWQQGNVFSCSVMHEALHNHYTQKSLSLSPGK
light: not shown
notes: 1+1 knobs-into-holes bispecific with common light chain; also called anti-EGFR/MET bispecific antibody E-6C4-M-2F11
For B2, the Kd [1] was 115 nM, the koff [1] was 0.0198 s⁻¹ and the kon [1] was 172000 M⁻¹ s⁻¹. For the same binder, the Kd [2] was 70.7 nM, the koff [2] was 0.0215 s⁻¹ and the kon [2] was 304000 M⁻¹ s⁻¹. The Kd [3] was 50.5 nM, the koff [3] was 0.00187 s⁻¹ and the kon [3] was 37000 M⁻¹ s⁻¹.
